Laboratory results taken from US20210246166A1 (Bayer, published 2021).
Numbered stars: 1 amine (or outer) side, 2 acyl side, 3 side chain; on linkers, the order of the positions; unused ones are H or OH. Bridge positions count the residues as written; N and C are the ends. Square brackets hold non-standard residues; d marks the D form. Ends that are not written are not given here. TTDS = 1,13-diamino-4,7,10-trioxatridecan-succinamic acid, O=C(CCC(=O)[*:2])NCCCOCCOCCOCCCN[*:1]; Pro(cis-4-CF3) = O=C(O)[C@@H]1C[C@H](C(F)(F)F)CN1; Oic = O=C(O)[C@@H]1C[C@@H]2CCCC[C@@H]2N1; NMeI = CC[C@H](C)[C@H](NC)C(=O)O; tBuAla = CC(C)(C)C[C@H](N)C(=O)O; PEG4 = NCCOCCOCCOCCOCCC(=O)O; Pen = CC(C)(S)[C@H](N)C(=O)O; NMeC = CN[C@@H](CS)C(=O)O; NMeA = CN[C@@H](C)C(=O)O; Orn = NCCC[C@H](N)C(=O)O; Sar = CNCC(=O)O

T1: recombinant human MASP1 active protease (amino acids 297-699, C-terminal His Tag) (human, UniProt P48740 297-699)
T1 sequence: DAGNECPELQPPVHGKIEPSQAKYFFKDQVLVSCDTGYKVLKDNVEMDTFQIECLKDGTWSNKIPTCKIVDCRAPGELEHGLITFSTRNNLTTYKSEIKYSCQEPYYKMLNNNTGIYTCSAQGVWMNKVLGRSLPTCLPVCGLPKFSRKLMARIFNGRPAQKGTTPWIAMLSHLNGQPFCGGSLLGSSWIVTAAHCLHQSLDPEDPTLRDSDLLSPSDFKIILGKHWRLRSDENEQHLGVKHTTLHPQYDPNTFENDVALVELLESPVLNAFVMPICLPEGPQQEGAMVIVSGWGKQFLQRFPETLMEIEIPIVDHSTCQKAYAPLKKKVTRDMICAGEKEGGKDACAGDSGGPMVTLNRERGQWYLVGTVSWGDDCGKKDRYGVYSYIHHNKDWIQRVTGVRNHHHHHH


What was measured:
[1] = biological target: T1, recombinant human MASP1 active protease …; assay: cell-based or functional assay
[2] = biological target: recombinant human MASP2 active protease (amino acids 297-686, C-terminal His Tag) (human, UniProt O00187 297-686); assay: cell-based or functional assay
Chain of recombinant human MASP2 active protease (amino acids 297-686, C-terminal His Tag) (O00187 other isoform, or with tags, fused parts or gaps limits assumed): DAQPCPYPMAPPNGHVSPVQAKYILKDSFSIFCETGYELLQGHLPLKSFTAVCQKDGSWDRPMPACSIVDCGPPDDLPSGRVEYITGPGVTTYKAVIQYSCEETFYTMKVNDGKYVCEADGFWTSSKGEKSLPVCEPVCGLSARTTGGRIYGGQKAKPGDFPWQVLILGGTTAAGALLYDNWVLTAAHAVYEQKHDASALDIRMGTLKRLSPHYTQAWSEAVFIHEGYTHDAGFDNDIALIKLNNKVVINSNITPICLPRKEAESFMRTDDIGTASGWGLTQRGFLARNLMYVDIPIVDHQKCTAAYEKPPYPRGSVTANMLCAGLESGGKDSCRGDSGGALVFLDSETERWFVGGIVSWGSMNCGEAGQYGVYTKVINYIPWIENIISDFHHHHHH

Binder | human MASP1 IC50 [1] [nM] | human MASP2 IC50 [2] [nM]
[Orn]ICSRS[tBuAla]PPI[Pen]IP-NH2 (disulfide 3-11; N-terminus assumed; SMILES CC[C@H](C)[C@H](NC(=O)[C@@H](N)CCCN)C(=O)N[C@H]1CSSC(C)(C)[C@@H](C(=O)N[C@H](C(=O)N2CCC[C@H]2C(N)=O)[C@@H](C)CC)NC(=O)[C@H]([C@@H](C)CC)NC(=O)[C@@H]2CCCN2C(=O)[C@@H]2CCCN2C(=O)[C@H](CC(C)(C)C)NC(=O)[C@H](CO)NC(=O)[C@H](CCCNC(=N)N)NC(=O)[C@H](CO)NC1=O) [(Orn)-IC+SRS-((tBu)A)-PPI-(Pen)+IP-NH2] | 3.2 | 93
[NMeA]ICSRS[tBuAla]PPI[Pen]IP-NH2 (disulfide 3-11; N-terminus assumed; SMILES CC[C@H](C)[C@H](NC(=O)[C@H](C)NC)C(=O)N[C@H]1CSSC(C)(C)[C@@H](C(=O)N[C@H](C(=O)N2CCC[C@H]2C(N)=O)[C@@H](C)CC)NC(=O)[C@H]([C@@H](C)CC)NC(=O)[C@@H]2CCCN2C(=O)[C@@H]2CCCN2C(=O)[C@H](CC(C)(C)C)NC(=O)[C@H](CO)NC(=O)[C@H](CCCNC(=N)N)NC(=O)[C@H](CO)NC1=O) [((N-Me)A)-IC+SRS-((tBu)A)-PPI-(Pen)+IP-NH2] | 3.2 | 24
[NMeA]ICSRSLP[Oic]I[Pen]IPE-NH2 (disulfide 3-11; N-terminus assumed; SMILES CC[C@H](C)[C@H](NC(=O)[C@H](C)NC)C(=O)N[C@H]1CSSC(C)(C)[C@@H](C(=O)N[C@H](C(=O)N2CCC[C@H]2C(=O)N[C@@H](CCC(=O)O)C(N)=O)[C@@H](C)CC)NC(=O)[C@H]([C@@H](C)CC)NC(=O)[C@@H]2C[C@@H]3CCCC[C@@H]3N2C(=O)[C@@H]2CCCN2C(=O)[C@H](CC(C)C)NC(=O)[C@H](CO)NC(=O)[C@H](CCCNC(=N)N)NC(=O)[C@H](CO)NC1=O) [((N-Me)A)-IC+SRSLP-(Oic)-I-(Pen)+IPE-NH2] | 3.3 | 200
AICSRSLP[Oic]I[Pen]IPQ-NH2 (disulfide 3-11; N-terminus assumed; SMILES CC[C@H](C)[C@H](NC(=O)[C@H](C)N)C(=O)N[C@H]1CSSC(C)(C)[C@@H](C(=O)N[C@H](C(=O)N2CCC[C@H]2C(=O)N[C@@H](CCC(N)=O)C(N)=O)[C@@H](C)CC)NC(=O)[C@H]([C@@H](C)CC)NC(=O)[C@@H]2C[C@@H]3CCCC[C@@H]3N2C(=O)[C@@H]2CCCN2C(=O)[C@H](CC(C)C)NC(=O)[C@H](CO)NC(=O)[C@H](CCCNC(=N)N)NC(=O)[C@H](CO)NC1=O) [AIC+SRSLP-(Oic)-I-(Pen)+IPQ-NH2] | 3.3 | 140
[NMeA]ICSRSLP[Oic]I[Pen]I-OH (disulfide 3-11; N-terminus assumed; SMILES CC[C@H](C)[C@H](NC(=O)[C@H]1NC(=O)[C@H]([C@@H](C)CC)NC(=O)[C@@H]2C[C@@H]3CCCC[C@@H]3N2C(=O)[C@@H]2CCCN2C(=O)[C@H](CC(C)C)NC(=O)[C@H](CO)NC(=O)[C@H](CCCNC(=N)N)NC(=O)[C@H](CO)NC(=O)[C@@H](NC(=O)[C@@H](NC(=O)[C@H](C)NC)[C@@H](C)CC)CSSC1(C)C)C(=O)O) [((N-Me)A)-IC+SRSLP-(Oic)-I-(Pen)+I-OH] | 3.4 | 410
[NMeA]ICSRSLP[Oic]I[Pen]IP-NH2 (disulfide 3-11; N-terminus assumed; SMILES CC[C@H](C)[C@H](NC(=O)[C@H](C)NC)C(=O)N[C@H]1CSSC(C)(C)[C@@H](C(=O)N[C@H](C(=O)N2CCC[C@H]2C(N)=O)[C@@H](C)CC)NC(=O)[C@H]([C@@H](C)CC)NC(=O)[C@@H]2C[C@@H]3CCCC[C@@H]3N2C(=O)[C@@H]2CCCN2C(=O)[C@H](CC(C)C)NC(=O)[C@H](CO)NC(=O)[C@H](CCCNC(=N)N)NC(=O)[C@H](CO)NC1=O) [((N-Me)A)-IC+SRSLP-(Oic)-I-(Pen)+IP-NH2] | 3.4 | 99

Next, values leading:

human MASP1 IC50 [1] [nM] | human MASP2 IC50 [2] [nM] | Binder
3.2 | 79 | [Sar]ICSRSLP[Oic]I[Pen]IP[PEG4]-NH2 (disulfide 3-11; N-terminus assumed; SMILES CC[C@H](C)[C@H](NC(=O)CNC)C(=O)N[C@H]1CSSC(C)(C)[C@@H](C(=O)N[C@H](C(=O)N2CCC[C@H]2C(=O)NCCOCCOCCOCCOCCC(N)=O)[C@@H](C)CC)NC(=O)[C@H]([C@@H](C)CC)NC(=O)[C@@H]2C[C@@H]3CCCC[C@@H]3N2C(=O)[C@@H]2CCCN2C(=O)[C@H](CC(C)C)NC(=O)[C@H](CO)NC(=O)[C@H](CCCNC(=N)N)NC(=O)[C@H](CO)NC1=O) [((N-Me)G)-IC+SRSLP-(Oic)-I-(Pen)+IP-(PEG3(16 atoms))-NH2]
3.2 | 1600 | AICSRS[tBuAla]P[Pro(cis-4-CF3)]I[NMeC]IPD-NH2 (disulfide 3-11; N-terminus assumed; SMILES CC[C@H](C)[C@H](NC(=O)[C@H](C)N)C(=O)N[C@H]1CSSC[C@@H](C(=O)N[C@H](C(=O)N2CCC[C@H]2C(=O)N[C@@H](CC(=O)O)C(N)=O)[C@@H](C)CC)N(C)C(=O)[C@H]([C@@H](C)CC)NC(=O)[C@@H]2C[C@H](C(F)(F)F)CN2C(=O)[C@@H]2CCCN2C(=O)[C@H](CC(C)(C)C)NC(=O)[C@H](CO)NC(=O)[C@H](CCCNC(=N)N)NC(=O)[C@H](CO)NC1=O) [AIC+SRS-((tBu)A)-P-((4-CF3)P)-I-((N-Me)C)+IPD-NH2]
1.2 | 620 | A[NMeI]CSRS[tBuAla]PPI[NMeC]IPD-NH2 (disulfide 3-11; N-terminus assumed; SMILES CC[C@H](C)[C@@H]1NC(=O)[C@@H]2CCCN2C(=O)[C@@H]2CCCN2C(=O)[C@H](CC(C)(C)C)NC(=O)[C@H](CO)NC(=O)[C@H](CCCNC(=N)N)NC(=O)[C@H](CO)NC(=O)[C@@H](NC(=O)[C@H]([C@@H](C)CC)N(C)C(=O)[C@H](C)N)CSSC[C@@H](C(=O)N[C@H](C(=O)N2CCC[C@H]2C(=O)N[C@@H](CC(=O)O)C(N)=O)[C@@H](C)CC)N(C)C1=O) [A-((N-Me)I)-C+SRS-((tBu)A)-PPI-((N-Me)C)+IPD-NH2]
3.3 | 71 | [2‑(Piperidin)acetyl]ICSRS[tBuAla]PPI[Pen]IPD-NH2 (disulfide 3-11) [(2-(Piperidin)acetyl)-IC+SRS-((tBu)A)-PPI-(Pen)+IPD-NH2]
3.4 | 87 | [Sar]ICSRSLP[Oic]I[Pen]IP[TTDS]-NH2 (disulfide 3-11; N-terminus assumed; SMILES CC[C@H](C)[C@H](NC(=O)CNC)C(=O)N[C@H]1CSSC(C)(C)[C@@H](C(=O)N[C@H](C(=O)N2CCC[C@H]2C(=O)NCCCOCCOCCOCCCNC(=O)CCC(N)=O)[C@@H](C)CC)NC(=O)[C@H]([C@@H](C)CC)NC(=O)[C@@H]2C[C@@H]3CCCC[C@@H]3N2C(=O)[C@@H]2CCCN2C(=O)[C@H](CC(C)C)NC(=O)[C@H](CO)NC(=O)[C@H](CCCNC(=N)N)NC(=O)[C@H](CO)NC1=O) [((N-Me)G)-IC+SRSLP-(Oic)-I-(Pen)+IP-(TTDS)-NH2]
3.5 | 98 | [2‑(Diethylamino)acetyl]ICSRS[tBuAla]PPI[Pen]IPD-NH2 (disulfide 3-11) [(2-(Diethylamino)acetyl)-IC+SRS-((tBu)A)-PPI-(Pen)+IPD-NH2]
